The record followed here is patent publication US20140017240A1 (University of California, published 2014).

The target of test [1] is T1, N-cadherin on the cell surface (PC3 cells and LNCaP N-cadherin transfected cells) (human, UniProt P19022 160-906).
T1 construct: whole, on cells; DU145 and untransfected LNCaP cells served as N-cadherin negative cells; also called cellular N-cadherin; cell surface N-cadherin
T1 sequence (looked up): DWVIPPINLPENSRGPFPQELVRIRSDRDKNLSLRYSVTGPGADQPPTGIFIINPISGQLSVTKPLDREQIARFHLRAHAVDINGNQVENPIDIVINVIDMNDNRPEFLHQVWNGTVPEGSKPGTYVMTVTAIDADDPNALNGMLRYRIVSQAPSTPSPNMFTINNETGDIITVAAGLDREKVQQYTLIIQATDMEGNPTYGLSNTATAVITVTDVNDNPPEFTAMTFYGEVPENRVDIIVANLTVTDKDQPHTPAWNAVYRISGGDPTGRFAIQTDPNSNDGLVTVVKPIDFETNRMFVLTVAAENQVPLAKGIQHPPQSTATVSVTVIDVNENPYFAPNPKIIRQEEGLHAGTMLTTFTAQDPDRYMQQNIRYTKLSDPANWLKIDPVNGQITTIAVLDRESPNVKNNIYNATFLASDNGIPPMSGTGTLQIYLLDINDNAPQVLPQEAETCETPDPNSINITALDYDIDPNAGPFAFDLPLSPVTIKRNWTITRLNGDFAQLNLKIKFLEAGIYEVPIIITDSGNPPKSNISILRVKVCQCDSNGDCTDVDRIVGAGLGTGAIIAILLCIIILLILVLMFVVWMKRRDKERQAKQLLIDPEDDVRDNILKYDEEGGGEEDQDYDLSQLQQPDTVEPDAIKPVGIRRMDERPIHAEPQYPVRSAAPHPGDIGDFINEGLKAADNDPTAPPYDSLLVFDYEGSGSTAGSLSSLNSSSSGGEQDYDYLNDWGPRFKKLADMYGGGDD
Kind of test: flow cytometry, diabody on N-cadherin positive cells. On the procedure:
Flow cytometry was conducted to assess binding of phage antibody clones and diabodies to cellular N-cadherin. For phage antibody staining supernatant concentrated 20 times was used. Individual clones were grown in 20 ml 2TY to a density of 0.5 O.D_{600 nm} when phage were rescued with helper phages. After an overnight culture, monoclonal phage were harvested from the supernatant by precipitation with PEG/NaCl and resuspended in 1 ml PBS/1% BSA. For flow cytometry staining, 5×10⁵ cells were incubated for one hour on ice with 100 μl of 20×PEG concentrated phage antibody clone. Cells were washed in flow buffer (PBS 1% FBS, 1 mM EDTA, 0.02% Sodium azide) and the phage antibody clones detected with monoclonal anti-M13 antibody (Amersham Biosciences). Cells were washed and stained with R-PE congugated anti-mouse antibody. For diabody staining, 5×10⁵ cells were incubated for one hour on ice with the diabody at a 2 μg/ml concentration in flow buffer. Cells were washed and the diabody detected with 1/100 anti-c-Myc-biotin antibody in flow buffer. Cells were finally washed and stained with 1/40 Streptavidin-R-PE (SIGMA) in flow buffer.
The eleven individual phage clones selected by ELISA were tested for cell binding of N-cadherin positive cells (PC3 and LNCaP N-cadherin transfected cells) by flow cytometry. […]
Background: In flow cytometry, cells or beads pass a laser one at a time.

Test [2] addresses N-cadherin on the cell surface (PC3 cells and LNCaP N-cadherin transfected cells) (human) (UniProt P19022). Kind of test: flow cytometry, phage clone on N-cadherin positive cells (cell line not stated).
The target of test [3] is T2, N-cadherin extracellular domains one to three recombinant protein with 6 histidine tag (human) (UniProt P19022).
T2 sequence (looked up): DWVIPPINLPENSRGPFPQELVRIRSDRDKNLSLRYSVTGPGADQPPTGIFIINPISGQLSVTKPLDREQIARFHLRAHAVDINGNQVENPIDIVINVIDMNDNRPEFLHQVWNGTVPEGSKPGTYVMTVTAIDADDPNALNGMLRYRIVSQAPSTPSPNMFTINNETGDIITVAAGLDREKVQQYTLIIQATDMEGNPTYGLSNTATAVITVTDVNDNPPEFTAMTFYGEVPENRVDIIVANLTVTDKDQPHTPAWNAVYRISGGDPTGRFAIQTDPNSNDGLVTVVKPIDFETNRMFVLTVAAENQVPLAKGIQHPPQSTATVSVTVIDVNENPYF
Kind of test: phage ELISA, plate coated with ECD1-3-6HIS. (In general: ELISA stands for enzyme-linked immunosorbent assay.)

Test [4] deals with T3, N-cadherin extracellular domains one to three recombinant protein with GST tag (human) (UniProt P19022).
T3 sequence (looked up): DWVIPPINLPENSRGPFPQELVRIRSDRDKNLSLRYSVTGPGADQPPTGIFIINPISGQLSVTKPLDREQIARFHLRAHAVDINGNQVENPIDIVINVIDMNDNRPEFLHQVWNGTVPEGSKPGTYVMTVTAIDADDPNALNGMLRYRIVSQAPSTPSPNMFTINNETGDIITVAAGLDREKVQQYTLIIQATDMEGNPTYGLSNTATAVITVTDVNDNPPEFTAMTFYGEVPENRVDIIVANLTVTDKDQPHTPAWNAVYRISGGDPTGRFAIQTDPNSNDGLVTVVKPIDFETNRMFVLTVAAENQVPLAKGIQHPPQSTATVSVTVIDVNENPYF
Kind of test: phage ELISA, second phage batch, plate coated with ECD1-3-GST.

Test [5] deals with T2, N-cadherin extracellular domains one to three recombinant protein with 6 histidine tag (human). Kind of test: phage ELISA, second phage batch, plate coated with ECD1-3-6HIS.
Test [6] concerns the target T3, N-cadherin extracellular domains one to three recombinant protein with GST tag (human). Kind of test: phage ELISA, plate coated with ECD1-3-GST.
In test [7] the target is T1, N-cadherin on the cell surface (PC3 …). The test is described as follows: flow cytometry, diabody at 2 ug/ml on PC3 cells.
Test [8] deals with T4, N-cadherin extracellular domains one to three recombinant protein with 6 histidine tag (human, UniProt P19022 160-497).
T4 construct: range 160-497; Expressed in bacteria and purified from the periplasmic fraction on Ni-NTA; also called ECD1-3-6HIS; ECD1-3 6HIS; not shown: 6 histidine tag
T4 sequence (looked up): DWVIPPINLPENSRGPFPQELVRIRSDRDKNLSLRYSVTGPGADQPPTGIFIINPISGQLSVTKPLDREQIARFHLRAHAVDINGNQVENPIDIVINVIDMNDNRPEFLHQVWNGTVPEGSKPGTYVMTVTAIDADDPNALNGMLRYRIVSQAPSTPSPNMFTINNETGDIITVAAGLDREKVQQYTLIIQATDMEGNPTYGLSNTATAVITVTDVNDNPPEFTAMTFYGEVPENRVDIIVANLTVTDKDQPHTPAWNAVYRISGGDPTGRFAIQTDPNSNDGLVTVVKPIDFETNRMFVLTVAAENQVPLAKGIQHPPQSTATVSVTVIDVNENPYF
Kind of test: phage ELISA.

B1: E4 diabody (other)
chain: MAQVQLVQSGAEVKKPGESLEISCKGSGYSFANNWIGWVRQMPGKGLEWMGSIYPGDSDVRYSRSFQGHVTISADKSISTAYLQWSSLKASDTAMYYCARHRVAYSGYDAFDIWGQGTMVTVSSGGGGSSVLTQDPAVSVALGQTVRITCQGDSLRSYYPSWYQQKPGQAPVLVIYGKNNRPSGIPDRFSGSSSGNTASLTITGAQAEDEADYYCHSRDRSGNQVLFGGGTKVTVLG
notes: Diabody made from the scFv by shortening the linker; also called E4 Db; not shown: c-Myc and 6HIS tags from the pSyn1 vector
As to B1, the binding result in test [1] is given as “binds”.

B2: A8 phage antibody clone (truncated) (scFv)
scFv: MAQVQLQESGWYFDLWGRGTPVTVSSGGGGSGGGGSGGGGSEIVLTQSPSSLSASVGDRVTITCRASQGIRNDLGWYQQKPGKAPKLLIYAASSLQSGVPSRFSGSGSGTDFTLTISSLQPEDFATYYCLQDYNGWTFGQGTKVEIKR
As to B2, the Flow Cytometry (MFI) in test [2] is 30 MFI. The 1st ELISA (O.D) in test [3] worked out at 0.25 O.D; in test [6], 0.17 O.D. The values for the 2nd ELISA (O.D) in test [4] and in test [5] were 0.05 O.D and 0.11 O.D, respectively.

B3: D4 diabody (other)
chain: MAQVQLVQSGAEVKRPGASVRISCKASGYPFTTYPIHWVRQAPGQGLEWMGGINPNSGATKNVQKFQGRVTMTADTSIRTAYMELSRLTSDDTAVYYCARGEGDTGSYLGGYWGLGTLVTVSSGGGGSSELTQDPAVSVALGQTVRITCQGDSLRSYYASWYQQKPGRAPLLVIYGKNIRPSGIPDRFSGSSSGNSASLTITGAQAEDEADYYCNSRDRSGNYLFGVGTKVTVLG
notes: Diabody made from the scFv by shortening the linker; also called D4 Db; not shown: c-Myc and 6HIS tags from the pSyn1 vector
Regarding B3, the binding result in test [7] is “binds”.

B4: A14 ScFv phage antibody clone (scFv)
scFv: MAQVQLVQSGGGLAQPGGSLRLSCAASGFTFSRHAMIWVRQAPGKGLEWVSSISGSSDSTSYADSVKGRFTISRDNSKNTLYLQMNTLRAEDTAVYYCAKATGYSYYYGMDVWGPGTTVTVSSGGGGSGGGGSGGGGSDIQMTQSPSSLSASLGDRVTITCRASQGISNYLAWYQQKPGKAPKLLIYGATTLQHGVPSRFSGSGSGTDFSLTISSLQPEDFAIYFCQQAHSFPPTFGGGTKLEIKR
notes: Clone A1 was renamed A14; Selected on ECD4-6HIS; also called A14 (A1)
As to B4, the binding result in test [8] is reported as “no binding”.

B5: A14 diabody (other)
chain: MAQVQLVQSGGGLAQPGGSLRLSCAASGFTFSRHAMIWVRQAPGKGLEWVSSISGSSDSTSYADSVKGRFTISRDNSKNTLYLQMNTLRAEDTAVYYCAKATGYSYYYGMDVWGPGTTVTVSSGGGGSDIQMTQSPSSLSASLGDRVTITCRASQGISNYLAWYQQKPGKAPKLLIYGATTLQHGVPSRFSGSGSGTDFSLTISSLQPEDFAIYFCQQAHSFPPTFGGGTKLEIKR
notes: Diabody (small bivalent antibody fragment) made from the scFv by shortening the linker from 15 to 5 a.a; also called A14 Db; not shown: c-Myc and 6HIS tags from the pSyn1 vector
Consider B5, for which, in test [1], the binding result is given as “binds”.

B6: D4 phage antibody clone (scFv)
scFv: MAQVQLVQSGAEVKRPGASVRISCKASGYPFTTYPIHWVRQAPGQGLEWMGGINPNSGATKNVQKFQGRVTMTADTSIRTAYMELSRLTSDDTAVYYCARGEGDTGSYLGGYWGLGTLVTVSSGGGGSGGGGSGGGGSSELTQDPAVSVALGQTVRITCQGDSLRSYYASWYQQKPGRAPLLVIYGKNIRPSGIPDRFSGSSSGNSASLTITGAQAEDEADYYCNSRDRSGNYLFGVGTKVTVLG
Turning to B6, the Flow Cytometry (MFI) in test [2] is 0 MFI.
